From patent US7138236B1, “Interactions of ATM, ATR or DAN-PK with p53” (Kudos Pharmaceuticals Limited, priority 1997, dated 2006)
Square brackets hold non-standard residues; d marks the D form. pT = C[C@@H](OP(=O)(O)O)[C@H](N)C(=O)O

Molecular target: Mdm-2 (Homo sapiens, UniProt Q00987)
Experiment: Mdm-2 binding of p53-derived peptides by ELISA analysis
Settings: peptides containing p53 residues 11 to 25, unphosphorylated or phosphorylated on Ser15 and/or Thr18
Method: To test whether phosphorylation on Ser15 or Thr18 of p53 affects its interaction with Mdm-2, phosphorylated and unphosphorylated p53-derived peptides were generated and were assessed for Mdm-2 binding by ELISA analysis. The four peptides used contained p53 residues 11 to 25 (in the sequence (SEQ ID NO:11) NH2-SGSGEPPLSOETFSDLWKL-COOH; where the underlined sequence is that derived from p53) that were unphosphorylated (1); phosphorylated on residue equivalent to p53 residue Ser15(2); phosphorylated on residue equivalent to p53 residue Thr18(3); or phosphorylated on two residues, equivalent to p53 residue Ser15 and Thr18(4). […] We therefore conclude that phosphorylation on Thr18 of p53 has a dramatic effect on its interaction with […] and that phosphorylation of this site is likely to play a key role in regulating p53 responses in vivo.

Sequence of Mdm-2 (Q00987 whole entry, species assumed): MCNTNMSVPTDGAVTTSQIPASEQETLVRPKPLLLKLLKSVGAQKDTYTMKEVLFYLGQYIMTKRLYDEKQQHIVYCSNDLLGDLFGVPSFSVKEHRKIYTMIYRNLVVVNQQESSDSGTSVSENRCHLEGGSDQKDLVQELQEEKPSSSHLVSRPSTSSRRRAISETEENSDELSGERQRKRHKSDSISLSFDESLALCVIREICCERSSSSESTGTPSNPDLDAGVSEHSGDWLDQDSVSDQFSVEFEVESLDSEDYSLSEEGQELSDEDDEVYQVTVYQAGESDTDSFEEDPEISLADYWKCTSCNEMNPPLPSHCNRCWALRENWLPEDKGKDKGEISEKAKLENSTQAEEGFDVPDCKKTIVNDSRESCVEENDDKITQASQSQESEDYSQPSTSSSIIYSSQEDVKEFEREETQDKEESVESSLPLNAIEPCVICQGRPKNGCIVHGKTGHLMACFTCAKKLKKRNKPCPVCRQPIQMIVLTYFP

Substance | Mdm-2 binding of p53-derived peptides
NH2-SGSGEPPLSOETFSDLWKL-COOH [3] (H-SGSGEPPLSQE[pT]FSDLWKL-OH; SMILES CC(C)C[C@H](NC(=O)[C@H](CCCCN)NC(=O)[C@H](Cc1c[nH]c2ccccc12)NC(=O)[C@H](CC(C)C)NC(=O)[C@H](CC(=O)O)NC(=O)[C@H](CO)NC(=O)[C@H](Cc1ccccc1)NC(=O)[C@@H](NC(=O)[C@H](CCC(=O)O)NC(=O)[C@H](CCC(N)=O)NC(=O)[C@H](CO)NC(=O)[C@H](CC(C)C)NC(=O)[C@@H]1CCCN1C(=O)[C@@H]1CCCN1C(=O)[C@H](CCC(=O)O)NC(=O)CNC(=O)[C@H](CO)NC(=O)CNC(=O)[C@@H](N)CO)[C@@H](C)OP(=O)(O)O)C(=O)O; UniProt P04637 11-25, looked up, fragment) [compound 3, peptide containing p53 residues 11 to 25, phosphorylated on residue equivalent to Thr18] | inhibited dramatically
NH2-SGSGEPPLSOETFSDLWKL-COOH [compound 4] | inhibited dramatically
NH2-SGSGEPPLSOETFSDLWKL-COOH [peptide 1] (H-SGSGEPPLSQETFSDLWKL-OH; UniProt P04637 11-25, looked up, fragment) [peptide containing p53 residues 11 to 25, unphosphorylated] | occurred effectively
NH2-SGSGEPPLSOETFSDLWKL-COOH [peptide 2] (EPPLSQETFSDLWKL; phospho-Ser15; N-terminal SGSG linker; UniProt P04637 11-25, looked up, fragment) [peptide containing p53 residues 11 to 25, phosphorylated on residue equivalent to Ser15] | only impaired slightly
